Tests used:
Assay in all cases: cell-based or functional assay
TrkA Y490/785F = TrkA Y490/785F (UniProt P04629)
TrkA Y490F = TrkA Y490F (UniProt P04629)
TrkA Y785F = TrkA Y785F (UniProt P04629)
[1] = target: wild-type TrkA, baculovirus-expressed, activated (autophosphorylated) (UniProt P04629)

- Trk tyrosine dephosphorylation on co-expression in insect cells (anti-pTyr blot) (TrkA Y490/785F): 2 fold
- Trk tyrosine dephosphorylation on co-expression in insect cells (anti-pTyr blot) (TrkA Y490F): 2 fold
- Trk tyrosine dephosphorylation on co-expression in insect cells (anti-pTyr blot) (TrkA Y785F): 2 fold
- Trk tyrosine dephosphorylation on co-expression in insect cells (anti-pTyr blot) [1]: 2 fold
- dephosphorylation of Trk at Y674/Y675 (phospho-specific anti-Trk antibodies, co-expression in insect cells) [1]: 2 fold
B1: SHP-2 (enzyme, UniProt Q06124 2-593, looked up, species assumed)
Tyrosine-protein phosphatase non-receptor type 11: TSRRWFHPNITGVEAENLLLTRGVDGSFLARPSKSNPGDFTLSVRRNGAVTHIKIQNTGDYYDLYGGEKFATLAELVQYYMEHHGQLKEKNGDVIELKYPLNCADPTSERWFHGHLSGKEAEKLLTEKGKHGSFLVRESQSHPGDFVLSVRTGDDKGESNDGKSKVTHVMIRCQELKYDVGGGERFDSLTDLVEHYKKNPMVETLGTVLQLKQPLNTTRINAAEIESRVRELSKLAETTDKVKQGFWEEFETLQQQECKLLYSRKEGQRQENKNKNRYKNILPFDHTRVVLHDGDPNEPVSDYINANIIMPEFETKCNNSKPKKSYIATQGCLQNTVNDFWRMVFQENSRVIVMTTKEVERGKSKCVKYWPDEYALKEYGVMRVRNVKESAAHDYTLRELKLSKVGQGNTERTVWQYHFRTWPDHGVPSDPGGVLDFLEEVHHKQESIMDAGPVVVHCSAGIGRTGTFIVIDILIDIIREKGVDCDIDVPKTIQMVRSQRSGMVQTEAQYRFIYMAVQHYIETLQRRIEEEQKSKRKGHEYTNIKYSLADQTSGDQSPLPPCTPTPPCAEMREDSARVYENVGLMQQQKSFR

From US20020110800A1, “Use of SHP-1 and SHP-2 to detect compounds involved in neuronal survival” (McGill University, priority 1997, published 2002)
